Laboratory results from publication PMC7698151, “Evidence for Pentapeptide-Dependent and Independent CheB Methylesterases” (International Journal of Molecular Sciences, 2020).
Like-named read-outs stand apart in the source and are kept apart here.

Tests used:
[1] = target: Tar pentapeptide (Escherichia coli); settings: cited from earlier work
[2] = target: P. aeruginosa PAO1 CheB2 D55E mutant (Pseudomonas aeruginosa PAO1) (UniProt Q9I6V9); test: ITC
[3] = target: McpB (Aer2) pentapeptide (Pseudomonas aeruginosa); settings: cited from earlier work
[4] = target: Tar methylation site (Escherichia coli) (UniProt P07017); settings: cited from earlier work
[5] = target: Tar pentapeptide (Escherichia coli); settings: cited from earlier work; remark: listed apart in the source

Chain of CheR (P07364 whole entry): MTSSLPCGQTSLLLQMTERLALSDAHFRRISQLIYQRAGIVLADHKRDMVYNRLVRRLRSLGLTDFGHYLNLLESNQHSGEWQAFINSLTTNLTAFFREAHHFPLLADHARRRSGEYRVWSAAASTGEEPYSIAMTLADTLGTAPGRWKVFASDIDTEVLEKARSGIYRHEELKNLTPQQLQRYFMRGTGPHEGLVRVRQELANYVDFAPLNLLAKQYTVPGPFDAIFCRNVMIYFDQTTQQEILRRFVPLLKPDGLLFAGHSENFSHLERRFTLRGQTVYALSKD
Chain of CheB (P07330 whole entry): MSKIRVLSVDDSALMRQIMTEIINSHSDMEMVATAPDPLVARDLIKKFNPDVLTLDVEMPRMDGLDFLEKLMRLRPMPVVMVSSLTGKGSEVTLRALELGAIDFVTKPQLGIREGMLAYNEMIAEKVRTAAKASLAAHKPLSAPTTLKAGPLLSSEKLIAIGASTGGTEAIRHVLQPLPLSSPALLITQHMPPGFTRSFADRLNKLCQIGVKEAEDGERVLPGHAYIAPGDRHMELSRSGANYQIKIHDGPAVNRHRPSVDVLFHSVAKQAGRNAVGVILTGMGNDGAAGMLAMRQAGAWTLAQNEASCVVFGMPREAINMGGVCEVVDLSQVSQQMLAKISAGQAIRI

Substance: CheB (from UniProt P07330)
- Kd [1]: 145 µM

Substance: […] pentapeptide of the McpB (Aer2) chemoreceptor
- Kd [2]: 56 µM

Substance: CheR2 (from UniProt Q9I6V7)
- Kd [3]: 0.52 µM

Substance: CheR (from UniProt P07364)
- Kd [4]: 150 µM
- Kd [5]: 2 µM
